This is an account of results in paper PMC2175121.

The target of this experiment is cell-surface GalNAcPTase (chicken (endogenous in E9 chick retina cells)).

As for “Full-length neurocan fusion protein (RP) (natural protein)”, the inhibition of N-cadherin-mediated adhesion of E9 retina cells, RP at 20 μg/ml is 60%.
